The values that follow are results of earlier work, collected in paper PMC5963937.

This data set deals with LPL (Homo sapiens) (UniProt P06858).
Chain of UniProt P06858 (P06858 28-475): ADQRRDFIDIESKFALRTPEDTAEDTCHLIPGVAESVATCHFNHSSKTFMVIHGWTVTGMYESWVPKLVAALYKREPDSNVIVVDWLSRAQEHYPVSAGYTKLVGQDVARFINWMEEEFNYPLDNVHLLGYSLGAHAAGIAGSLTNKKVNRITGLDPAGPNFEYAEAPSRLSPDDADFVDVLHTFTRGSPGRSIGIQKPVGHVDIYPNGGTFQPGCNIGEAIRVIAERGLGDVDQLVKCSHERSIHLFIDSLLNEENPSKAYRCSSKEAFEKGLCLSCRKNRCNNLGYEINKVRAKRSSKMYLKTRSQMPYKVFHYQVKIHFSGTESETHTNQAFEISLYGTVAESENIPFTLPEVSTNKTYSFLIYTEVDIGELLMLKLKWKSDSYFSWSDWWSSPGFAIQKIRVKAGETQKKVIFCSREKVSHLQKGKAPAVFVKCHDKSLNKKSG

Regarding GPIHBP1 (from UniProt Q8IV16), the Kd is 0.025 µM.
